PMC4518712, “Regulation of the PI3K pathway through a p85α monomer–homodimer equilibrium” (eLife, 2015)
Where “and” joins values, the source holds several entries; their conditions need not be identical. Equal entries are not always repeated.

Legend:
[1] = molecular target: GST-ΔSH3 p85α (residues 86–742, comprising PR1 to cSH2); assay: ITC; MicroCal ITC200, 25°C, 10 mM sodium phosphate pH 7.5, 150 mM NaCl, 5 mM DTT; PR1 peptide injected into p85α SH3 (100 μM) in the cell, or SH3 (400 μM) in the syringe and GST-ΔSH3 p85α in the cell
[2] = molecular target: p85α SH3-PR1-BH-PR2 fragment (residues 1–333) (UniProt P27986); assay: AUC; sedimentation equilibrium, 20°C, samples at 1.0, 0.5 and 0.25 mg/ml, 11.8, 12.8, 13.8 krpm; global fit to a monomer–dimer–tetramer model (p85α, 1–333) or a monomer–dimer model (PR1-BH); constant of dimerization (dimer to monomers); reducing conditions
[3] = molecular target: p85α SH3-PR1-BH-PR2 fragment (residues 1–333) (UniProt P27986); assay: MST; Alexa647-labelled protein at 20 nM, the same protein unlabelled titrated from 50,000 nM in 1:1 dilutions; 20 mM sodium phosphate pH 8, 150 mM NaCl, 2 mM EDTA, 5 mM DTT; dimerization
Fyn SH3 (Homo sapiens) = Fyn SH3 (Homo sapiens) (UniProt P06241); settings: cited from earlier work
class I PXXP peptide = settings: cited from earlier work
[4] = molecular target: the molecule itself; assay: MST; Alexa647-labelled protein at 20 nM, the same protein unlabelled titrated from 50,000 nM in 1:1 dilutions; 20 mM sodium phosphate pH 8, 150 mM NaCl, 2 mM EDTA, 5 mM DTT; dimerization
[5] = molecular target: the molecule itself; assay: AUC; sedimentation equilibrium, 20°C, samples at 1.0, 0.5 and 0.25 mg/ml, 11.8, 12.8, 13.8 krpm; global fit to a monomer–dimer–tetramer model (p85α, 1–333) or a monomer–dimer model (PR1-BH); constant of dimerization (dimer to monomers); reducing conditions
p85α SH3 (residues 1–81) = molecular target: T1, p85α SH3 (residues 1–81) (UniProt P27986 1-81); assay: ITC; MicroCal ITC200, 25°C, 10 mM sodium phosphate pH 7.5, 150 mM NaCl, 5 mM DTT; PR1 peptide injected into p85α SH3 (100 μM) in the cell, or SH3 (400 μM) in the syringe and GST-ΔSH3 p85α in the cell; settings: both partners purified
T1 construct: p85α residues 1–81; pET28b
T1 sequence (P27986 1-81): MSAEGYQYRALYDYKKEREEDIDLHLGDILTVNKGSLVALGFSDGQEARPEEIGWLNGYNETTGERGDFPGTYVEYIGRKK

Chain of Fyn SH3 (Homo sapiens) (P06241 79-146): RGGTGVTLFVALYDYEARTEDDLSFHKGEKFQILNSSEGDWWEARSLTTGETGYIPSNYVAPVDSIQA

p85α SH3 (residues 1–81) (from UniProt P27986 1-81) (domain or fragment)
Kd [1]: 16.8 µM | dH [1]: -3.2 kcal/mol | stoichiometry N [1]: 0.8

p85α SH3-PR1-BH-PR2 fragment (residues 1–333) (from UniProt P27986 1-333) (domain or fragment)
Kd [2]: 0.53 µM | Kd [3]: 0.441 µM

p85α PR1 PR1 (from UniProt P27986)
Kd (Fyn SH3 (Homo sapiens)): 16 µM

p85α SH3 SH3 (from UniProt P27986)
Kd (class I PXXP peptide): 40 µM

B1: p85α PR1-BH (residues 79–301) (domain or fragment, UniProt P27986 79-301, looked up)
chain: RKKISPPTPKPRPPRPLPVAPGSSKTEADVEQQALTLPDLAEQFAPPDIAPPLLIKLVEAIEKKGLECSTLYRTQSSSNLAELRQLLDCDTPSVDLEMIDVHVLADAFKRYLLDLPNPVIPAAVYSEMISLAPEVQSSEEYIQLLKKLIRSPSIPHQYWLTLQYLLKHFFKLSQTSSKNLLNARVLSEIFSPMLFRFSAASSDNTENLIKVIEILISTEWNER
modifications: Alexa647 label on the labelled copy (MST only)
notes: p85α residues 79–301; pET28b
Kd [4]: 22.3 µM and 23 µM | Kd [5]: 163 µM

B2: synthetic p85α PR1 peptide PKPRPPRPLPVAP (peptide)
peptide: PKPRPPRPLPVAP
notes: p85α PR1 region, begins at P87; source: synthetic peptide
Kd (p85α SH3 (residues 1–81)): 23.3 µM and 24 µM | dH (p85α SH3 (residues 1–81)): -1.17 kcal/mol | stoichiometry N (p85α SH3 (residues 1–81)): 1.06
